US20110263454A1, “Methods of Identifying Functional Characteristics of Promoters, Transcription Modifying Proteins and Transcription Modulating Agents” (Salk Institute for Biological Studies, priority 2008, published 2011)

Experiments:
hCYP3A4 promoter = assay: NHR-promoter luciferase screen, hCYP3A4 promoter; type: cell-based, human; details: for Luc. act., normalized to lacZ / Normalized Luc. act., normalized to control: CYP3A4 promoter, HR/ligand component; for hCYP3A4 promoter reporter activity: transcription factor +/- ligand, control = 1.00
Protocol: (§1) Briefly, there were co-expressed 50 ng of each NHR/NHR homodimer or NHR/RXR heterodimer with 100 ng promoter/luciferase construct and 50 ng of LacZ (as a control for transfection efficiency) in CV-1 cells using Fugene HD (Roche) as a transfection reagent (alternatively or additionally, a CMV-YFP construct can be used as a transfection control). Each of the nuclear hormone receptors that were used in these experiments was cloned into a pcDNA3.1 vector and comprised a C-terminally linked V5H6 tag.
(§2) The promoters that facilitate transcription of the indicated gene products that were tested using the protocols described herein are listed in the first row of the table. The nuclear hormone receptors and, where applicable, ligands that were assayed for their transcriptional effects on the promoters are listed in the first column of the table. The data represent the luciferase activity of each sample normalized to both the lacZ activity of that sample and to a control, e.g., no NHR or ligand, as customary in the art. As described previously, these normalizations allow the transcriptional activity of each reporter cell to be compared to other samples.
(§3) Tables 7-40 show the transcriptional effects of the hormone receptors, and, where applicable, ligands (orphan receptors are screened without ligand), on each individual promoter. […] The control data of each table are shown in their last rows.

mGhrelin promoter = assay: NHR-promoter luciferase screen, mGhrelin promoter; type: cell-based, mouse; details: for Luc. act., normalized to lacZ / Normalized Luc. act., normalized to control: Table 8, mGhrelin; for Results of assays of transcription factor (+/- ligand) with mGhrelin: Table 6d, luciferase activity relative to control (control = 1.00)
Protocol: (§4) The use, feasibility, and reproducibility of the functional NHR-promoter screen in a 48-well format have been tested validated. Briefly, there were co-expressed 50 ng of each NHR/NHR homodimer or NHR/RXR heterodimer with 100 ng promoter/luciferase construct and 50 ng of LacZ (as a control for transfection efficiency) in CV-1 cells using Fugene HD (Roche) as a transfection reagent (alternatively or additionally, a CMV-YFP construct can be used as a transfection control). Each of the nuclear hormone receptors that were used in these experiments was cloned into a pcDNA3.1 vector and comprised a C-terminally linked V5H6 tag. Twenty-four hours after transfection, appropriate ligands were added, where applicable, (see Table 5 for various ligands and concentrations and after 48 hrs, samples were assayed for luciferase and LacZ activity. To measure for luciferase activity 15 ul of sample was added to 30 ul of luciferase buffer (20 mM tricine, 1.07 mM MgCarbonate, 2.67 mM MgSulfate, 0.1 mM Naz-EDTA, 5 mM DTT, 5 mM ATP, 0.15 mg/ml CoA, 0.5 mM Luciferin), mixed briefly, and run in a Perkin Elmer Victor 5 luminometer. Thus, the functional NHR-promoter screen was used to observe the transcriptional activity of 29 promoters from various physiological pathways including inflammation, lipid and sugar metabolism, cholesterol transport, xenobiotic metabolism, and circadian rhythm.
as §2, §3

mAgrp promoter = assay: NHR-promoter luciferase screen, mAgrp promoter; type: cell-based, mouse; details: for Results of assays of transcription factor (+/- ligand) with mAgrp: Table 6d, luciferase activity relative to control (control = 1.00); for Luc. act., normalized to lacZ / Normalized Luc. act., normalized to control: mAgrp promoter, HR component with or without ligand; for Normalized Luc. act., normalized to control: relative to control
Protocol: as §4, §2, §3

mABCA1 promoter = assay: NHR-promoter luciferase screen, mABCA1 promoter; type: cell-based, mouse; details: for Luc. act., normalized to lacZ / Normalized Luc. act., normalized to control: ABCA1 promoter, hormone receptor with or without its ligand; for Normalized Luc. act., normalized to control: relative to control; for mABCA1 promoter reporter activity: transcription factor +/- ligand, control = 1.00
Protocol: as §4, §2, §3

mPgc1b promoter = assay: NHR-promoter luciferase screen, mPgc1b promoter; type: cell-based, mouse; details: for Luc. act., normalized to lacZ / Normalized Luc. act., normalized to control: PGC1b promoter reporter, co-transfected HR, without or with its ligand; for Normalized Luc. act., normalized to control: relative to control; for luciferase activity normalized to lacZ activity and to a control, mPgc1b: mPgc1b promoter-luciferase, CV-1 cells, NHR +/- ligand, control = 1.00
Protocol: as §1, §2, §3

B1: RVRb: Rev-Erb β (NR1D2, alternative name RVR), cDNA driver (protein, UniProt Q14995 1-579, looked up)
Nuclear receptor subfamily 1 …: MEVNAGGVIAYISSSSSASSPASCHSEGSENSFQSSSSSVPSSPNSSNSDTNGNPKNGDLANIEGILKNDRIDCSMKTSKSSAPGMTKSHSGVTKFSGMVLLCKVCGDVASGFHYGVHACEGCKGFFRRSIQQNIQYKKCLKNENCSIMRMNRNRCQQCRFKKCLSVGMSRDAVRFGRIPKREKQRMLIEMQSAMKTMMNSQFSGHLQNDTLVEHHEQTALPAQEQLRPKPQLEQENIKSSSPPSSDFAKEEVIGMVTRAHKDTFMYNQEQQENSAESMQPQRGERIPKNMEQYNLNHDHCGNGLSSHFPCSESQQHLNGQFKGRNIMHYPNGHAICIANGHCMNFSNAYTQRVCDRVPIDGFSQNENKNSYLCNTGGRMHLVCPMSKSPYVDPHKSGHEIWEEFSMSFTPAVKEVVEFAKRIPGFRDLSQHDQVNLLKAGTFEVLMVRFASLFDAKERTVTFLSGKKYSVDDLHSMGAGDLLNSMFEFSEKLNALQLSDEEMSLFTAVVLVSADRSGIENVNSVEALQETLIRALRTLIMKNHPNEASIFTKLLLKLPDLRSLNNMHSEELLAFKVHP
Luc. act., normalized to lacZ (hCYP3A4 promoter): 4.5 | Normalized Luc. act., normalized to control (hCYP3A4 promoter): 1.0 | hCYP3A4 promoter reporter activity (hCYP3A4 promoter): 1.01 | Luc. act., normalized to lacZ (mGhrelin promoter): 126.8 | Normalized Luc. act., normalized to control (mGhrelin promoter): 2.4 | Results of assays of transcription factor (+/- ligand) with mGhrelin (mGhrelin promoter): 2.43 | Results of assays of transcription factor (+/- ligand) with mAgrp (mAgrp promoter): 1.05 | Luc. act., normalized to lacZ (mAgrp promoter): 41.7 | Normalized Luc. act., normalized to control (mAgrp promoter): 1.1 | Luc. act., normalized to lacZ (mABCA1 promoter): 36.8 | Normalized Luc. act., normalized to control (mABCA1 promoter): 6.6 | mABCA1 promoter reporter activity (mABCA1 promoter): 6.55 | Luc. act., normalized to lacZ (mPgc1b promoter): 9.3 | Normalized Luc. act., normalized to control (mPgc1b promoter): 0.8 | luciferase activity normalized to lacZ activity and to a control, mPgc1b (mPgc1b promoter): 0.78

B2: RARb: Retinoic acid receptor β (NR1B2), nuclear hormone receptor cDNA driver (protein, UniProt P10826 1-455, looked up)
Retinoic acid receptor beta: MTTSGHACPVPAVNGHMTHYPATPYPLLFPPVIGGLSLPPLHGLHGHPPPSGCSTPSPATIETQSTSSEELVPSPPSPLPPPRVYKPCFVCQDKSSGYHYGVSACEGCKGFFRRSIQKNMIYTCHRDKNCVINKVTRNRCQYCRLQKCFEVGMSKESVRNDRNKKKKETSKQECTESYEMTAELDDLTEKIRKAHQETFPSLCQLGKYTTNSSADHRVRLDLGLWDKFSELATKCIIKIVEFAKRLPGFTGLTIADQITLLKAACLDILILRICTRYTPEQDTMTFSDGLTLNRTQMHNAGFGPLTDLVFTFANQLLPLEMDDTETGLLSAICLICGDRQDLEEPTKVDKLQEPLLEALKIYIRKRRPSKPHMFPKILMKITDLRSISAKGAERVITLKMEIPGSMPPLIQEMLENSEGHEPLTPSSSGNTAEHSPSISPSSVENSGVSQSPLVQ
Luc. act., normalized to lacZ (hCYP3A4 promoter): 4.6 | Normalized Luc. act., normalized to control (hCYP3A4 promoter): 1.0 | hCYP3A4 promoter reporter activity (hCYP3A4 promoter): 1.03 | Luc. act., normalized to lacZ (mGhrelin promoter): 84.4 | Normalized Luc. act., normalized to control (mGhrelin promoter): 1.6 | Results of assays of transcription factor (+/- ligand) with mGhrelin (mGhrelin promoter): 1.61 | Results of assays of transcription factor (+/- ligand) with mAgrp (mAgrp promoter): 2.27 | Luc. act., normalized to lacZ (mAgrp promoter): 90.2 | Normalized Luc. act., normalized to control (mAgrp promoter): 2.3 | Luc. act., normalized to lacZ (mABCA1 promoter): 36.8 | Normalized Luc. act., normalized to control (mABCA1 promoter): 6.6 | mABCA1 promoter reporter activity (mABCA1 promoter): 6.55 | Luc. act., normalized to lacZ (mPgc1b promoter): 14.32 | Normalized Luc. act., normalized to control (mPgc1b promoter): 1.2 | luciferase activity normalized to lacZ activity and to a control, mPgc1b (mPgc1b promoter): 1.21

B3: RARg: Retinoic acid receptor γ (NR1B3), nuclear hormone receptor cDNA driver (protein, UniProt P13631 1-454, looked up)
Retinoic acid receptor gamma: MATNKERLFAAGALGPGSGYPGAGFPFAFPGALRGSPPFEMLSPSFRGLGQPDLPKEMASLSVETQSTSSEEMVPSSPSPPPPPRVYKPCFVCNDKSSGYHYGVSSCEGCKGFFRRSIQKNMVYTCHRDKNCIINKVTRNRCQYCRLQKCFEVGMSKEAVRNDRNKKKKEVKEEGSPDSYELSPQLEELITKVSKAHQETFPSLCQLGKYTTNSSADHRVQLDLGLWDKFSELATKCIIKIVEFAKRLPGFTGLSIADQITLLKAACLDILMLRICTRYTPEQDTMTFSDGLTLNRTQMHNAGFGPLTDLVFAFAGQLLPLEMDDTETGLLSAICLICGDRMDLEEPEKVDKLQEPLLEALRLYARRRRPSQPYMFPRMLMKITDLRGISTKGAERAITLKMEIPGPMPPLIREMLENPEMFEDDSSQPGPHPNASSEDEVPGGQGKGGLKSPA
Luc. act., normalized to lacZ (hCYP3A4 promoter): 4.0 | Normalized Luc. act., normalized to control (hCYP3A4 promoter): 0.9 | hCYP3A4 promoter reporter activity (hCYP3A4 promoter): 0.91 | Luc. act., normalized to lacZ (mGhrelin promoter): 88.8 | Normalized Luc. act., normalized to control (mGhrelin promoter): 1.7 | Results of assays of transcription factor (+/- ligand) with mGhrelin (mGhrelin promoter): 1.70 | Results of assays of transcription factor (+/- ligand) with mAgrp (mAgrp promoter): 2.06 | Luc. act., normalized to lacZ (mAgrp promoter): 81.9 | Normalized Luc. act., normalized to control (mAgrp promoter): 2.1 | Luc. act., normalized to lacZ (mABCA1 promoter): 26.4 | Normalized Luc. act., normalized to control (mABCA1 promoter): 4.7 | mABCA1 promoter reporter activity (mABCA1 promoter): 4.69 | Luc. act., normalized to lacZ (mPgc1b promoter): 12.70 | Normalized Luc. act., normalized to control (mPgc1b promoter): 1.1 | luciferase activity normalized to lacZ activity and to a control, mPgc1b (mPgc1b promoter): 1.07
